Values belong to the binder of their own block, whether it stands above or below them.
Legend:
human HER2 ectodomain = target: T1, human HER2 ectodomain (human, UniProt P04626 23-652); assay: SPR (Biacore T100), antibody captured via anti-human IgG-Fc on a CM5 chip, dual inject Her2 then Her3 ectodomain, 180 s each, 25 °C
T1 construct: extracellular domain; also called hu HER2 ECD; Her2 ECD
Description: (§1) All experiments were performed on a Biacore T100 (GE Healthcare). Experimental results were analyzed using the T100 control and evaluation software package (GE Healthcare, v2.03). The assay format was a ‘multi cycle kinetic’ measurement on a CM5-chip. […] Using a concentration series, seven increasing concentrations of each of the antigens (human Her1, Her2, and Her3 ectodomain) were injected separately. […] Running buffer was PBS-T. Dilution buffer was PBST containing BSA (c=1 mg/mL). Capturing of MAbs<HerX> on flow cell 2, 3, and 4 with a concentration of approx. c=1 nM, flow 50/min, time 72 sec. […] Dissociation time: 1800 sec. Each concentration was analyzed as duplicate. Final regeneration was performed after each cycle using 3 M MgCl2 (recommended by vendor) with a contact time of 120 sec and a flow rate of 50 μl/min. Analysis of simultaneous binding: Her2/Her3, Her3/Her2 or Her1/Her2 were injected consecutively using the dual inject mode with a contact time of 180 sec. each. The antigen concentration was chosen for each antigen at the saturation as observed in the kinetics experiment. […] A temperature of 25° C. was chosen to minimize dissociation. Triplicates for each combination were determined. Flow rate 30 mL/min, dual inject with two injects, each 180 sec.

human HER3 ectodomain = target: T2, human HER3 ectodomain (human, UniProt P21860 20-643); assay: SPR Biacore T100, 37 C, antibody captured via anti-human IgG-Fc, ECD as analyte, 1:1 Langmuir fit
T2 construct: extracellular domain; also called hu HER3 ECD; Her3 ECD
T2 sequence (P21860 20-643): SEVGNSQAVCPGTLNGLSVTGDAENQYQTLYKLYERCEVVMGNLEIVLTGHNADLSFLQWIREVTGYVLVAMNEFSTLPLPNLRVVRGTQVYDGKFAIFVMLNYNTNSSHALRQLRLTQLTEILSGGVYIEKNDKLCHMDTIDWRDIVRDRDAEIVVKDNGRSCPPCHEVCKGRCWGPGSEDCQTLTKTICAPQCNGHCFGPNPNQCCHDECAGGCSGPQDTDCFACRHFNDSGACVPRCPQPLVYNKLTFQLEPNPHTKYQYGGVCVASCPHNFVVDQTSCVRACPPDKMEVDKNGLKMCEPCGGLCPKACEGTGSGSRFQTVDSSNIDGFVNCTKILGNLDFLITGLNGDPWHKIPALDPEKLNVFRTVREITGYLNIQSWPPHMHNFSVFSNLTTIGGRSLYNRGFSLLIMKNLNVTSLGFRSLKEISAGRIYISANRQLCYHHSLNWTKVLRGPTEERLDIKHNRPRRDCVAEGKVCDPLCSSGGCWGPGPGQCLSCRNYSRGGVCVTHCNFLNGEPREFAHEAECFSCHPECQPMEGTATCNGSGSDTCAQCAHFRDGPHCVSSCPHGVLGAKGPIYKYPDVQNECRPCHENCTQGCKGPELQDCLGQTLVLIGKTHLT
Description: as §1

human HER1 ectodomain = target: T3, human HER1 ectodomain (human, UniProt P00533 25-645); assay: as above
T3 construct: extracellular domain; also called hu HER1 ECD; Her1 ECD
Description: as §1

binding result (human HER2 ectodomain): no binding
Kd (human HER3 ectodomain): 1.9 nM
koff (human HER3 ectodomain): 0.0037 s⁻¹
kon (human HER3 ectodomain): 2e+06 M⁻¹ s⁻¹
t ½ (human HER3 ectodomain): 3.1 min
Kd (human HER1 ectodomain): 14 nM
koff (human HER1 ectodomain): 0.021 s⁻¹
kon (human HER1 ectodomain): 1.4e+06 M⁻¹ s⁻¹
t ½ (human HER1 ectodomain): 0.6 min
B1: parental DAF (Her1-Her3 dual affinity antibody) (antibody)
heavy 1: not shown
heavy 2: not shown
light: DIQMTQSPSSLSASVGDRVTITCRASQNIATDVAWYQQKPGKAPKLLIYSASFLYSGVPSRFSGSGSGTDFTLTISSLQPEDFATYYCQQSEPEPYTFGQGTKVEIKRTVAAPSVFIFPPSDEQLKSGTASVVCLLNNFYPREAKVQWKVDNALQSGNSQESVTEQDSKDSTYSLSSTLTLSKADYEKHKVYACEVTHQGLSSPVTKSFNRGEC
notes: also called DAF antibody; Bispecific parent Her1/Her3 (with KiH)

Kd (human HER3 ectodomain): 1.8 nM
koff (human HER3 ectodomain): 0.0044 s⁻¹
kon (human HER3 ectodomain): 2.4e+06 M⁻¹ s⁻¹
t ½ (human HER3 ectodomain): 2.6 min
Kd (human HER1 ectodomain): 17 nM
koff (human HER1 ectodomain): 0.02 s⁻¹
kon (human HER1 ectodomain): 1.2e+06 M⁻¹ s⁻¹
t ½ (human HER1 ectodomain): 0.6 min
B2: trispecific antibody KiH Her1-Her3 DAF-xHer2 (antibody, human IgG1, kappa)
heavy 1: not shown
heavy 2: not shown
light 1: B1 light
light 2: DIQMTQSPSSLSASVGDRVTITCKASQDVSIGVAWYQQKPGKAPKLLIYSASYRYTGVPSRFSGSGSGTDFTLTISSLQPEDFATYYCQQYYIYPYTFGQGTKVEIKSSASTKGPSVFPLAPSSKSTSGGTAALGCLVKDYFPEPVTVSWNSGALTSGVHTFPAVLQSSGLYSLSSVVTVPSSSLGTQTYICNVNHKPSNTKVDKKVEPKSC
notes: also called Trispecific Her1/Her3 xHer2
